Positions count from the first letter of the chain named. Names may count otherwise.
Assays:
[1] = target: soluble human CD3 (extracellular domain of human CD3) (human); experiment: BIACORE SPR, capture with anti-EK antibodies, bivalent fit
[2] = target: T1, soluble cynomolgus monkey CD3 (cynomolgus monkey); experiment: as above
T1 chain: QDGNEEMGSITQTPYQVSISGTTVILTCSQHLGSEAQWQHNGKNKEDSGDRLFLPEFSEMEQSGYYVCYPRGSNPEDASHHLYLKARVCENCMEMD

[3] = target: soluble human CD3 (extracellular domain of human CD3) (human); experiment: capture ELISA, plate coated with 1 µg/ml shCD3, OD450
[4] = target: soluble human CD3 (extracellular domain of human CD3) (human); experiment: capture ELISA, plate coated with 0.5 µg/ml shCD3, OD450
[5] = target: soluble human CD3 (extracellular domain of human CD3) (human); experiment: capture ELISA, plate coated with 1 µg/ml soluble human CD3, OD450
[6] = target: T1, soluble cynomolgus monkey CD3; experiment: capture ELISA, plate coated with 1 µg/ml soluble cynomolgus monkey CD3, OD450
[7] = target: T1, soluble cynomolgus monkey CD3; experiment: bispecific binding ELISA with soluble cynomolgus CD3 and soluble human B7H3 (sheet title 'sCynCD3-shB7H3 Bispecific Binding Elisa'); format not described, OD450
[8] = target: T2, epidermal growth factor receptor (EGFR) on A498 kidney cancer cells or A431 epidermoid carcinoma cells (UniProt P00533 25-1210, limits assumed); experiment: flow cytometry, binding to A498 kidney cancer cells, MFI
T2 construct: whole, on cells

Chain of soluble human CD3 (extracellular domain of human CD3) (human) (P07766 23-126, chain 1 of 2): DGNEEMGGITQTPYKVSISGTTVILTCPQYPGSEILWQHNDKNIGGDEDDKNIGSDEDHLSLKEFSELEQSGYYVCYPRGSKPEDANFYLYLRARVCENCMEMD
Chain of soluble human CD3 (extracellular domain of human CD3) (human) (P04234 22-105, chain 2 of 2, further chain): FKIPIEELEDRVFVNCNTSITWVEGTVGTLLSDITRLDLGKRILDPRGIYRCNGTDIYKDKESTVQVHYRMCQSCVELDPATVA

B1: chimeric variant of mAb2 antibody (ch-mAb2) (antibody, V domains shown)
VH: EVKLLESGGGLVQPKGSLKLSCAASGFTFNTYAMNWVRQAPGKGLEWVARIRSKYNNYATYYADSVKDRFTISRDDSQSILYLQMNNLKTEDTAMYYCVRHGNFGNSYVSWFAYWGQGTLVTVSA
VL: QAVVTQESALTTSPGETVTLTCRSSTGAVTTSNYANWVQEKPDHLFTGLIGGTNKRAPGVPARFSGSLIGDKAALTITGAQTEDEAIYFCALWYSNLWVFGGGTKLTVLG
notes: also called chimeric mAb2; mAb2 chimeric antibody
Kd [1]: 14.7 nM | kon [1]: 170000 M⁻¹ s⁻¹ | Kd [2]: 14.4 nM | kon [2]: 160000 M⁻¹ s⁻¹ | EC50 (read off the curve) [3]: 0.03 µg/mL | EC50 (read off the curve) [4]: 0.03 µg/mL | EC50 (read off the curve) [5]: 0.03 µg/mL | EC50 (read off the curve) [6]: ~0.03 µg/mL

B2: antibody having an h-mAb2 VL-8 light chain and the heavy chain of the mAb2 chimeric antibody (antibody, V domains shown)
VH: B1 VH
VL: QAVVTQEPSLTVSPGGTVTLTCRSSTGAVTTSNYANWVQEKPGQAPRGLIGGTNKRAPWTPARFSGSLLGGKAALTITGAQAEDEADYYCALWYSNLWVFGGGTKLTVLG
EC50 (read off the curve) [3]: 0.03 µg/mL | EC50 (read off the curve) [4]: 0.04 µg/mL

B3: antibody having an h-mAb2 VL-6 light chain and the heavy chain of the mAb2 chimeric antibody (antibody, V domains shown)
VH: B1 VH
VL: B2 VL with E40Q
notes: also called h-mAb2 VL-6 light chain antibody (Kabat F36V and T46G)
EC50 (read off the curve) [4]: 0.04 µg/mL | EC50 (read off the curve) [5]: 0.03 µg/mL | EC50 (read off the curve) [6]: ~0.03 µg/mL

B4: h-mAb2VH-8 HC / ch-mAb2 LC (antibody, V domains shown)
VH: B1 VH with K3Q, L5V, K15G, K19R, Q78K, S79N, I80S, N87S, M95V, A125S
VL: B1 VL
notes: also called ch-mAb2 LC / h-mAb2VH-8 HC
EC50 (read off the curve) [5]: 0.03 µg/mL | EC50 (read off the curve) [6]: ~0.03 µg/mL

B5: humanized mAb2 (h-mAb2) (antibody, V domains shown)
VH: B1 VH with K3Q, L5V, K15G, K19R, Q78K, S79N, I80S, N87S, M95V, A125S
VL: B2 VL with E40Q
notes: also called humanized variant of mAb2
Kd [1]: 20 nM | kon [1]: 190000 M⁻¹ s⁻¹ | Kd [2]: 24.1 nM | kon [2]: 170000 M⁻¹ s⁻¹ | EC50 (read off the curve) [5]: 0.03 µg/mL | EC50 (read off the curve) [6]: ~0.03 µg/mL

B6: B7-H3-2-h-mAb2 DART diabody (bispecific antibody)
chain 1: DIQLTQSPSFLSASVGDRVTITCKASQNVDTNVAWYQQKPGKAPKALIYSASYRYSGVPSRFSGSGSGTDFTLTISSLQPEDFATYYCQQYNNYPFTFGQGTKLEIKGGGGSGGGGEVQLVESGGGLVQPGGSLRLSCAASGFTFNTYAMNWVRQAPGKGLEWVARIRSKYNNYATYYADSVKDRFTISRDDSKNSLYLQMNSLKTEDTAVYYCVRHGNFGNSYVSWFAYWGQGTLVTVSSGGCGGGEVAALEKEVAALEKEVAALEKEVAALEK
chain 2: QAVVTQEPSLTVSPGGTVTLTCRSSTGAVTTSNYANWVQQKPGQAPRGLIGGTNKRAPWTPARFSGSLLGGKAALTITGAQAEDEADYYCALWYSNLWVFGGGTKLTVLGGGGSGGGGEVQLVESGGGLVQPGGSLRLSCAASGFTFSSFGMHWVRQAPGKGLEWVAYISSDSSAIYYADTVKGRFTISRDNAKNSLYLQMNSLRDEDTAVYYCGRGRENIYYGSRLDYWGQGTTVTVSSGGCGGGKVAALKEKVAALKEKVAALKEKVAALKE
notes: Two-chain diabody, hBRCA84D (anti-B7-H3) x h-mAb2
EC50 (read off the curve) [7]: ~0.03 µg/mL

B7: 4420 x huXR32 (bispecific antibody)
4420VL-hXR32VH-E coil: DVVMTQTPFSLPVSLGDQASISCRSSQSLVHSNGNTYLRWYLQKPGQSPKVLIYKVSNRFSGVPDRFSGSGSGTDFTLKISRVEAEDLGVYFCSQSTHVPWTFGGGTKLEIKGGGSGGGGEVQLVESGGGLVQPGGSLRLSCAASGFTFNTYAMNWVRQAPGKGLEWVARIRSKYNNYATYYADSVKDRFTISRDDSKNSLYLQMNSLKTEDTAVYYCVRHGNFGNSYVSWFAYWGQGTLVTVSSGGCGGGEVAALEKEVAALEKEVAALEKEVAALEK
hXR32VL-4420VH-K coil: QAVVTQEPSLTVSPGGTVTLTCRSSTGAVTTSNYANWVQQKPGQAPRGLIGGTNKRAPWTPARFSGSLLGGKAALTITGAQAEDEADYYCALWYSNLWVFGGGTKLTVLGGGGSGGGGEVKLDETGGGLVQPGRPMKLSCVASGFTFSDYWMNWVRQSPEKGLEWVAQIRNKPYNYETYYSDSVKGRFTISRDDSKSSVYLQMNNLRVEDMGIYYCTGSYYGMDYWGQGTSVTVSSGGCGGGKVAALKEKVAALKEKVAALKEKVAALKE
binding result [8]: no binding

From patent publication US20220056131A1 (MacroGenics, published 2022)
